Experiments:
[1] = target: Human vitronectin in its unfolded, activated form (human); test: ELISA; aVn coated at 74 nM; Msf constructs overlaid at 3 μM; bound Msf detected with rabbit anti-Msf polyclonal antiserum
[2] = target: Recombinant Msf 1-422 construct lacking amino acids 4-82 (Neisseria meningitidis strain H44/76); test: SDS-PAGE of unheated samples with Western blot; purified recombinant Msf proteins not heated before SDS-PAGE; detected with anti-Msf polyclonal antibody; bands near the trimeric molecular weight
[3] = target: Msf 1-203 KIK66-68AIA (Neisseria meningitidis strain H44/76); test: as above
[4] = target: Recombinant Msf fragment Msf 1-86 (strain H44/76) (Neisseria meningitidis strain H44/76); test: SEC; HiLoad 16/60 Superdex 200 in 50 mM Tris pH 8, 200 mM NaCl; mass from peak elution volume against protein standards
[5] = target: Msf 1-203 KK79-80AA (Neisseria meningitidis strain H44/76); test: SDS-PAGE of unheated samples with Western blot; purified recombinant Msf proteins not heated before SDS-PAGE; detected with anti-Msf polyclonal antibody; bands near the trimeric molecular weight
[6] = target: Msf 1-203 KIK66-68AIA (Neisseria meningitidis strain H44/76); test: ELISA; Msf constructs (or control protein) coated at 3 μM in carbonate buffer pH 9.6; aVn 74 nM in PBS overlaid 1 h at RT; bound aVn detected with rabbit polyclonal anti-vitronectin
[7] = target: Recombinant Msf fragment Msf 197-422 (strain H44/76) (Neisseria meningitidis strain H44/76); test: SDS-PAGE of unheated samples with Western blot; purified recombinant Msf proteins not heated before SDS-PAGE; detected with anti-Msf polyclonal antibody; bands near the trimeric molecular weight
[8] = target: Recombinant Msf fragment Msf 1-203 (strain H44/76) (Neisseria meningitidis strain H44/76); test: SEC; HiLoad 16/60 Superdex 200 in 50 mM Tris pH 8, 200 mM NaCl; mass from peak elution volume against protein standards
[9] = target: Msf 1-203 K60A (Neisseria meningitidis strain H44/76); test: SDS-PAGE of unheated samples with Western blot; purified recombinant Msf proteins not heated before SDS-PAGE; detected with anti-Msf polyclonal antibody; bands near the trimeric molecular weight
[10] = target: Recombinant Msf fragment Msf 1-422 (strain H44/76) (Neisseria meningitidis strain H44/76); test: SEC; HiLoad 16/60 Superdex 200 in 50 mM Tris pH 8, 200 mM NaCl; mass from peak elution volume against protein standards

## Recombinant Msf 1-422 construct lacking amino acids 4-82 (domain or fragment)
[1]
  fold reduction of binding against Msf 1-422: 4 fold
[2]
  stoichiometry N: 3

## Msf 1-203 KIK66-68AIA (domain or fragment)
[3]
  stoichiometry N: 3

## Recombinant Msf fragment Msf 1-86 (strain H44/76) (domain or fragment)
[4]
  stoichiometry N: 3

## Msf 1-203 KK79-80AA (domain or fragment)
[5]
  stoichiometry N: 3

## Human vitronectin in its unfolded, activated form (natural protein)
[6]
  reduction in Vn binding against Msf 1-203: 45%

## Recombinant Msf fragment Msf 197-422 (strain H44/76) (domain or fragment)
[1]
  fold lower binding than Msf 1-422: 6 fold
[7]
  stoichiometry N: 3

## Recombinant Msf fragment Msf 1-203 (strain H44/76) (domain or fragment)
[8]
  stoichiometry N: 3

## Msf 1-203 K60A (domain or fragment)
[9]
  stoichiometry N: 3

## Recombinant Msf fragment Msf 1-422 (strain H44/76) (domain or fragment)
[10]
  stoichiometry N: 3

Reference: article PMC4380367
